The results in this text go back to publication PMC8894703, “ZNF191 alters DNA methylation and activates the PI3K‐AKT pathway in hepatoma cells via transcriptional regulation of DNMT1”.

The target of the data set is ZNF191 (zinc finger protein 191) (UniProt P17028 1-368). Nature of the data set: EMSA; LightShift Chemiluminescent EMSA kit (Pierce); buffer, salt, pH and temperature not given; unlabeled oligonucleotides used for competition, outcome not given. Conditions: protein: recombinant; label: 5' biotin; blunt. In general terms: In EMSA bound probe runs differently from free probe, usually more slowly.
ZNF191 (zinc finger protein 191), sequence (P17028 whole entry): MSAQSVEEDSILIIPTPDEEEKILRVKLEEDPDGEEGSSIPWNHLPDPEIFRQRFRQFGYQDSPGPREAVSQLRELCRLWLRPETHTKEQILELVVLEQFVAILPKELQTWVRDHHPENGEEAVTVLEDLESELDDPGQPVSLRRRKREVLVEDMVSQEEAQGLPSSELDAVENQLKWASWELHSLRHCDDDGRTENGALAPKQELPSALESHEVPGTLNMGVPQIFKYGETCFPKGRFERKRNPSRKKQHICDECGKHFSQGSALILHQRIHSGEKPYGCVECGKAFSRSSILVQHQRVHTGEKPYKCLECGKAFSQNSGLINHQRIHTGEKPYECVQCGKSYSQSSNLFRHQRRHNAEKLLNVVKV

B1: Mut-DNMT1(nt-240) EMSA probe, 30 bp (dsDNA)
DNA 1: CCTGAAAGTTTGTTTGTTTGTTTGCCTCGG
DNA 2: CCGAGGCAAACAAACAAACAAACTTTCAGG
Regarding B1, the binding result is reported as “no binding”.

B2: DNMT1(nt-240) EMSA probe, 30 bp (dsDNA)
DNA 1: CCTGAAAGAATGAATGAATGAATGCCTCGG
DNA 2: CCGAGGCATTCATTCATTCATTCTTTCAGG
Turning to B2, the binding result is reported as “binds”.
